# Measured values reported in patent publication US20260242419A1, “A CYCLIC PEPTIDE FOR TRAPPING INTERLEUKIN-1 BETA” (Merck Sharp & Dohme LLC, priority 2023, published 2026).
# Starred links: 1 amine or outer side, 2 acyl side, 3 side chain; linkers in the order of their positions; H or OH if unused. Non-standard residues stand in square brackets, D forms with d. TyrEtNAc = (2S)-3-[4-(2-acetamidoethoxy)phenyl]-2-amino-propanoic acid, CC(=O)NCCOc1ccc(C[C@H](N[*:1])C(=O)[*:2])cc1; Phe3Cl4COOH = (S)-4-(2-amino-2-carboxyethyl)-2-chlorobenzoic acid, O=C([C@H](Cc1ccc(C(=O)[*:3])c(Cl)c1)N[*:1])[*:2]; Phe(4-(5-CO2H-2-pyrimidyl)) = N[C@@H](Cc1ccc(-c2ncc(C(=O)O)cn2)cc1)C(=O)O; Phe(4-(4-Ac-piperazinyl)) = CC(=O)N1CCN(c2ccc(C[C@H](N)C(=O)O)cc2)CC1; Trp(4-Cl)(βS-Me) = C[C@@H](c1c[nH]c2cccc(Cl)c12)[C@H](N)C(=O)O; dPro(4R-(4-pyridylmethyl)) = O=C(O)[C@H]1C[C@@H](Cc2ccncc2)CN1; Trp(βS-Me,4-F) = C[C@@H](c1c[nH]c2cccc(F)c12)[C@H](N)C(=O)O; Bip(4'-COOH) = N[C@@H](Cc1ccc(-c2ccc(C(=O)O)cc2)cc1)C(=O)O; Ala(1-bicyclo(1.1.1)pentyl) = N[C@@H](CC12CC(C1)C2)C(=O)O; dPro(3S-(4-F-Bn)) = O=C(O)[C@@H]1NCC[C@@H]1Cc1ccc(F)cc1; Phe(2-Cl,4-COOH) = N[C@@H](Cc1ccc(C(=O)O)cc1Cl)C(=O)O; 1Nal(3S-Me) = C[C@@H](c1cccc2ccccc12)[C@H](N)C(=O)O; Ala(pyrimidin-5-yl) = N[C@@H](Cc1cncnc1)C(=O)O; Phe(4-COOH) = N[C@@H](Cc1ccc(C(=O)O)cc1)C(=O)O; Pro(cis-4-F) = O=C(O)[C@@H]1C[C@H](F)CN1; Ala(4-THP) = N[C@@H](CC1CCOCC1)C(=O)O; d(αMeD) = C[C@@](N)(CC(=O)O)C(=O)O; 4Pal = N[C@@H](Cc1ccncc1)C(=O)O; aThr = C[C@H](O)[C@H](N)C(=O)O; d(αMeS) = C[C@@](N)(CO)C(=O)O; Dab = NCC[C@H](N)C(=O)O; Aib = CC(C)(N)C(=O)O
# Target: Recombinant human IL-1β (BioLegend 579404) (human, UniProt P01584 117-269)
# Assay: cell-based or functional assay
row,Binder,MRC5 IC50 [nM]
1,"cyclo([Bip(4'-COOH)][4Pal][Phe(4-COOH)]G[Pro(cis-4-F)][Trp(βS-Me,4-F)][Aib]SW[d(αMeS)][Ala(4-THP)]Q[Dab]G[dPro(4R-(4-pyridylmethyl))]) (SMILES C[C@@H](c1c[nH]c2cccc(F)c12)[C@@H]1NC(=O)[C@@H]2C[C@H](F)CN2C(=O)CNC(=O)[C@H](Cc2ccc(C(=O)O)cc2)NC(=O)[C@H](Cc2ccncc2)NC(=O)[C@H](Cc2ccc(-c3ccc(C(=O)O)cc3)cc2)NC(=O)[C@H]2C[C@@H](Cc3ccncc3)CN2C(=O)CNC(=O)[C@H](CCN)NC(=O)[C@H](CCC(N)=O)NC(=O)[C@H](CC2CCOCC2)NC(=O)[C@@](C)(CO)NC(=O)[C@H](Cc2c[nH]c3ccccc23)NC(=O)[C@H](CO)NC(=O)C(C)(C)NC1=O) [SEQ ID NO 364]",0.015
2,"cyclo([TyrEtNAc][4Pal][Phe(2-Cl,4-COOH)]G[Pro(cis-4-F)][1Nal(3S-Me)][Aib]SW[d(αMeD)][Ala(4-THP)]Q[Dab]G[dPro(4R-(4-pyridylmethyl))]) (SMILES CC(=O)NCCOc1ccc(C[C@@H]2NC(=O)[C@H]3C[C@@H](Cc4ccncc4)CN3C(=O)CNC(=O)[C@H](CCN)NC(=O)[C@H](CCC(N)=O)NC(=O)[C@H](CC3CCOCC3)NC(=O)[C@@](C)(CC(=O)O)NC(=O)[C@H](Cc3c[nH]c4ccccc34)NC(=O)[C@H](CO)NC(=O)C(C)(C)NC(=O)[C@H]([C@@H](C)c3cccc4ccccc34)NC(=O)[C@@H]3C[C@H](F)CN3C(=O)CNC(=O)[C@H](Cc3ccc(C(=O)O)cc3Cl)NC(=O)[C@H](Cc3ccncc3)NC2=O)cc1) [SEQ ID NO 363]",0.021
3,"cyclo([Phe(4-(4-Ac-piperazinyl))][4Pal][Phe(4-COOH)]G[Pro(cis-4-F)][Trp(βS-Me,4-F)][Aib]SW[Aib][Ala(pyrimidin-5-yl)]Q[Dab]G[dPro(4R-(4-pyridylmethyl))]) (SMILES CC(=O)N1CCN(c2ccc(C[C@@H]3NC(=O)[C@H]4C[C@@H](Cc5ccncc5)CN4C(=O)CNC(=O)[C@H](CCN)NC(=O)[C@H](CCC(N)=O)NC(=O)[C@H](Cc4cncnc4)NC(=O)C(C)(C)NC(=O)[C@H](Cc4c[nH]c5ccccc45)NC(=O)[C@H](CO)NC(=O)C(C)(C)NC(=O)[C@H]([C@@H](C)c4c[nH]c5cccc(F)c45)NC(=O)[C@@H]4C[C@H](F)CN4C(=O)CNC(=O)[C@H](Cc4ccc(C(=O)O)cc4)NC(=O)[C@H](Cc4ccncc4)NC3=O)cc2)CC1) [SEQ ID NO 366]",0.021
4,cyclo([TyrEtNAc][4Pal][Phe(4-COOH)]G[Pro(cis-4-F)][Trp(4-Cl)(βS-Me)][Aib]SW[d(αMeD)][Ala(4-THP)]Q[Dab]G[dPro(4R-(4-pyridylmethyl))]) (SMILES CC(=O)NCCOc1ccc(C[C@@H]2NC(=O)[C@H]3C[C@@H](Cc4ccncc4)CN3C(=O)CNC(=O)[C@H](CCN)NC(=O)[C@H](CCC(N)=O)NC(=O)[C@H](CC3CCOCC3)NC(=O)[C@@](C)(CC(=O)O)NC(=O)[C@H](Cc3c[nH]c4ccccc34)NC(=O)[C@H](CO)NC(=O)C(C)(C)NC(=O)[C@H]([C@@H](C)c3c[nH]c4cccc(Cl)c34)NC(=O)[C@@H]3C[C@H](F)CN3C(=O)CNC(=O)[C@H](Cc3ccc(C(=O)O)cc3)NC(=O)[C@H](Cc3ccncc3)NC2=O)cc1) [SEQ ID NO 362],0.023
5,"cyclo([Phe(4-(4-Ac-piperazinyl))][4Pal][Phe(2-Cl,4-COOH)]G[Pro(cis-4-F)][Trp(βS-Me,4-F)][Aib]SW[Aib][Ala(pyrimidin-5-yl)]Q[Dab]G[dPro(4R-(4-pyridylmethyl))]) (SMILES CC(=O)N1CCN(c2ccc(C[C@@H]3NC(=O)[C@H]4C[C@@H](Cc5ccncc5)CN4C(=O)CNC(=O)[C@H](CCN)NC(=O)[C@H](CCC(N)=O)NC(=O)[C@H](Cc4cncnc4)NC(=O)C(C)(C)NC(=O)[C@H](Cc4c[nH]c5ccccc45)NC(=O)[C@H](CO)NC(=O)C(C)(C)NC(=O)[C@H]([C@@H](C)c4c[nH]c5cccc(F)c45)NC(=O)[C@@H]4C[C@H](F)CN4C(=O)CNC(=O)[C@H](Cc4ccc(C(=O)O)cc4Cl)NC(=O)[C@H](Cc4ccncc4)NC3=O)cc2)CC1) [SEQ ID NO 365]",0.023

# Continued, values first:
row,MRC5 IC50 [nM],Binder
1,0.021,"cyclo([TyrEtNAc][4Pal][Phe(4-COOH)]G[Pro(cis-4-F)][Trp(βS-Me,4-F)][Aib]SW[d(αMeD)][Ala(pyrimidin-5-yl)]Q[Dab]G[dPro(3S-(4-F-Bn))]) (SMILES CC(=O)NCCOc1ccc(C[C@@H]2NC(=O)[C@H]3[C@@H](Cc4ccc(F)cc4)CCN3C(=O)CNC(=O)[C@H](CCN)NC(=O)[C@H](CCC(N)=O)NC(=O)[C@H](Cc3cncnc3)NC(=O)[C@@](C)(CC(=O)O)NC(=O)[C@H](Cc3c[nH]c4ccccc34)NC(=O)[C@H](CO)NC(=O)C(C)(C)NC(=O)[C@H]([C@@H](C)c3c[nH]c4cccc(F)c34)NC(=O)[C@@H]3C[C@H](F)CN3C(=O)CNC(=O)[C@H](Cc3ccc(C(=O)O)cc3)NC(=O)[C@H](Cc3ccncc3)NC2=O)cc1) [SEQ ID NO 369]"
2,0.014,"cyclo([TyrEtNAc][Ala(1-bicyclo(1.1.1)pentyl)][Phe(4-COOH)]G[Pro(cis-4-F)][Trp(βS-Me,4-F)][Aib]SW[d(αMeS)][Ala(4-THP)]Q[Dab]G[dPro(3S-(4-F-Bn))]) (SMILES CC(=O)NCCOc1ccc(C[C@@H]2NC(=O)[C@H]3[C@@H](Cc4ccc(F)cc4)CCN3C(=O)CNC(=O)[C@H](CCN)NC(=O)[C@H](CCC(N)=O)NC(=O)[C@H](CC3CCOCC3)NC(=O)[C@@](C)(CO)NC(=O)[C@H](Cc3c[nH]c4ccccc34)NC(=O)[C@H](CO)NC(=O)C(C)(C)NC(=O)[C@H]([C@@H](C)c3c[nH]c4cccc(F)c34)NC(=O)[C@@H]3C[C@H](F)CN3C(=O)CNC(=O)[C@H](Cc3ccc(C(=O)O)cc3)NC(=O)[C@H](CC34CC(C3)C4)NC2=O)cc1) [SEQ ID NO 371]"
3,0.017,"cyclo([TyrEtNAc][4Pal][Phe2Cl4COOH]G[Pro(cis-4-F)][Trp(βS-Me,4-F)][Aib]SW[Aib][Ala(pyrimidin-5-yl)]Q[Dab]G[dPro(4R-(4-pyridylmethyl))]) [SEQ ID NO 367]"
4,0.022,"cyclo([TyrEtNAc][4Pal][Phe(4-COOH)]G[Pro(cis-4-F)][Trp(βS-Me,4-F)][Aib]SW[Aib][Ala(pyrimidin-5-yl)]Q[Dab]G[dPro(4R-(4-pyridylmethyl))]) (SMILES CC(=O)NCCOc1ccc(C[C@@H]2NC(=O)[C@H]3C[C@@H](Cc4ccncc4)CN3C(=O)CNC(=O)[C@H](CCN)NC(=O)[C@H](CCC(N)=O)NC(=O)[C@H](Cc3cncnc3)NC(=O)C(C)(C)NC(=O)[C@H](Cc3c[nH]c4ccccc34)NC(=O)[C@H](CO)NC(=O)C(C)(C)NC(=O)[C@H]([C@@H](C)c3c[nH]c4cccc(F)c34)NC(=O)[C@@H]3C[C@H](F)CN3C(=O)CNC(=O)[C@H](Cc3ccc(C(=O)O)cc3)NC(=O)[C@H](Cc3ccncc3)NC2=O)cc1) [SEQ ID NO 368]"
5,0.015,"cyclo([TyrEtNAc][Ala(1-bicyclo(1.1.1)pentyl)][Phe(4-COOH)]G[Pro(cis-4-F)][Trp(βS-Me,4-F)][Aib]SW[d(αMeD)][Ala(4-THP)]Q[Dab]G[dPro(3S-(4-F-Bn))]) (SMILES CC(=O)NCCOc1ccc(C[C@@H]2NC(=O)[C@H]3[C@@H](Cc4ccc(F)cc4)CCN3C(=O)CNC(=O)[C@H](CCN)NC(=O)[C@H](CCC(N)=O)NC(=O)[C@H](CC3CCOCC3)NC(=O)[C@@](C)(CC(=O)O)NC(=O)[C@H](Cc3c[nH]c4ccccc34)NC(=O)[C@H](CO)NC(=O)C(C)(C)NC(=O)[C@H]([C@@H](C)c3c[nH]c4cccc(F)c34)NC(=O)[C@@H]3C[C@H](F)CN3C(=O)CNC(=O)[C@H](Cc3ccc(C(=O)O)cc3)NC(=O)[C@H](CC34CC(C3)C4)NC2=O)cc1) [SEQ ID NO 370]"

# Target: Recombinant human IL-1β (BioLegend 579404) (human, UniProt P01584 117-269)
# Assay: cell-based or functional assay
# Remark: another data set of the same source
row,MRC5 IC50 [nM],Binder
1,0.011,"cyclo([Bip(4'-COOH)][4Pal][Phe(4-COOH)]G[Pro(cis-4-F)][Trp(βS-Me,4-F)][Aib]SW[d(αMeD)][aThr]Q[Dab]G[dPro(4R-(4-pyridylmethyl))]) (ring closure inferred) [SEQ ID NO 359]"
2,0.013,cyclo([Bip(4'-COOH)][4Pal][Phe(4-COOH)]G[Pro(cis-4-F)][Trp(4-Cl)(βS-Me)][Aib]SW[d(αMeD)][aThr]Q[Dab]G[dPro(4R-(4-pyridylmethyl))]) (ring closure inferred) [SEQ ID NO 358]
3,0.019,"cyclo([Phe(4-(5-CO2H-2-pyrimidyl))][4Pal][Phe(2-Cl,4-COOH)]G[Pro(cis-4-F)][1Nal(3S-Me)][Aib]SW[d(αMeD)][Ala(4-THP)]Q[Dab]G[dPro(4R-(4-pyridylmethyl))]) (ring closure inferred) [SEQ ID NO 360]"
4,0.011,"cyclo([Bip(4'-COOH)][4Pal][Phe(2-Cl,4-COOH)]G[Pro(cis-4-F)][Trp(βS-Me,4-F)][Aib]SW[d(αMeD)][aThr]Q[Dab]G[dPro(4R-(4-pyridylmethyl))]) (ring closure inferred) [SEQ ID NO 356]"
5,0.017,cyclo([Bip(4'-COOH)][4Pal][Phe(4-COOH)]G[Pro(cis-4-F)][1Nal(3S-Me)][Aib]SW[d(αMeD)][aThr]Q[Dab]G[dPro(4R-(4-pyridylmethyl))]) (ring closure inferred) [SEQ ID NO 357]
6,0.022,"cyclo([Phe(4-(5-CO2H-2-pyrimidyl))][4Pal][Phe3Cl4COOH]G[Pro(cis-4-F)][Trp(βS-Me,4-F)][Aib]SW[d(αMeD)][Ala(4-THP)]Q[Dab]G[dPro(4R-(4-pyridylmethyl))]) (ring closure inferred) [SEQ ID NO 361]"
